According to the DeepSol protein solubility set:

assay: soluble on expression in E. coli; label from the status in PepcDB or PDB records

Soluble on expression in E. coli, soluble:
MSLTHTSDKHVTDEELELVTRGKADGIYMKAPNGSPTSLNERQWVQVRTRAFKNWFGDWENVPEAASRIPDDKYGNEQWTEEGYVYDLYVNSRNPFDPKDGQAVKKILQSLGSEIPVLSFYGGKGGTVSPEKALELASSKRNCWMLTETPEFLSKVREAGYDGLVGYDEGVKYIAVMSPGQLKDAYENTGAFSTSNDDIRFRQVYHGSPASLGHFDHAFTGTGEGAQAYGWGTYVTEVKGIARKYAAIGIKRGNHITYDGEPLSPVLDNEYYFDEVWRIWKRQILSSTDVDSLKRNISSVYMDGRTASAYSGRRKAFERQKQELLSDIDAGRIRIEPPRHLYTVEIPEDNGMNYLYWDRPVSAEQQGKIFLQLRKERFFFPEATAEFWSGRSHVWNSGKEFYGFLDYMFMNPDRDTDSQRLASGFLSRAGFTGIDYPAECSTGGRADGARNYVIFSEADLKITAHERFRFIGEKGASRLDRSEGASLRLENLAVAREMEKSGKDAGTIKAATGWERGADSKWRYETADFEYHPAGDLGYSRLLEKQSWHGELENLLDRQIEGETLSEAEWKRFEKLTELAAGLKEQDALRERIYLDDYVKDDELFQAYPEMKRTRLEFVDLPSADYCGGYLHPDNRIVINISRTDDVRSVLAHEIQHAIQTMEGFARGSNPGEFKNTVENVILDIVRATDGRILEGGGFDNTPKGIFAALDRKVPYGTILRHYDYPLSLVAEKYGYENIFDLVNDIGRFKSGIQEYRSTAGEVEARNVESRLDFTSAQRRNTLAVSTEDIARNGQIFLSRDVRMDELARHVSFLAGKLHIPVEVIRHADEVGSPDIRGLLSCGKDIRGWYDIPSQRVCLYLPHVRGKADVERTLLHEGVAHYGLRKLAGHKHMDAFLDDIFNGCGEKVRDEILRMAAADRTDIRVATEEYLARMAEDGTDQSLWDRIVTAFRNLLRKLGFCLEIGTRELRGILAASRKNLIGIAEPTVIQTARGDLELSCGYGRAVLRRQGVETDVTSLLERMRKAGISPASLGQEDWKAVFNGGIILPGGRKLMAVREPAGYGMRISGVSPGSTREGHHHHHH
MSLTITLRVLGTSVTLLESLRERAEQELGIKLVYQIHDVQTAQRIAVMQPDSYDLYDQWFHNVDFVWPARAIQPIDTRRIALWHEINDLPKRGRLRPTDQPGSGSVPSERLFVQHDGSLGSTVTERISMLPLTHNADSFAYRPERLPEGLSPADESWGWLLDSAWGGRIALQSDAAIGALDAALAVQGAGLAQFNDIGNMSIEEIDLLADVLVRKQQQGHFGAFWSDDEEAAELMLSPTIDIQSLWSPTLVRLHRAGVKYRVAVPKEGYRGWFGGLSLSRYAKGPVLDAAYAYLNWWLSGWPGAVMARQGYYIGNPARSRDHLSAAEWDYWYAGLPAREQLLGSDGLPLIDAGEIRDGGSYEERMGHIAVWNSVMNEHNYLVRRWSDILRASGKSSAKAREGHHHHHH
MSLTLKLFELVGADAGRPFSPFVWRTRMALAHKGLTAETIPWRFTDKAAIAPYGSEKVPVLLDGDKVVADSWAIANYLEDAYPDRPSLFGGDGGRAMARMLNWWGDLAIIGGIFPMIVADIAQRLDPEDAAYFRQSREARLKTTLEEAAASRDRAVQGFRKSLDPLRLTLKTQAFIGGAAPNYADYIVFGGFQWARVVSDFSLLQSDDPVYAWRERLLDAFGGLARATPGYPVEGHHHHHH
MSLTLPDTDQLVAGIQSWIQCESPSNSPAGVTAMAHLAAEYARAVGLAVEIRPLNAEVGPLVHATNRAAGDTRPGVLILGHIDTVHPIGTLQDNPCRIDGDRLYGPGSYDMKAGIYLALSALRGLPSPDATALPVDFLLVPDEETGSHASREHIEHYAARAKYALVCEPARPNGGKCVTARKGTGMLRLNVKGRPAHAGMQHEKGRSAIREMAHQVLELESMTDYERGITVSVGTIAGGTVTNTVPAQCRCVVDFRVPDMGATEDVLRRMRNLCSVGPDMELDIDVELNRPPMVKTEAASALLQLAQDFAAQAGFALEDAPMTGGGSDANFTSAMGVPTLDGLGADGDGAHTLNEYILVSTLAARMRFWELLLKELHEGHHHHHH
MSLTMDVPPTIHVPLPPTSYPAFDAAIFTDIGGRKHQEDRFTLCPQLVPGRDDCAFFGVFDGTVGDFASENVKDLVVPQLISSPAWQEVTEMLRSDVPATEVDEKLPQLLDQAVDDMYKNADNELVKMCEQLNKDYASSTSVTAVLAKGFVAVGHLGDSRIAMGVETPNGLNCEFLTVDHKPDMPHEKLRIMRNGGSVEYLHNHNNKPFIRGGDFSFRKSRGEQPMQLQYSRAFGGKDLKMYGLSNQPDVRVVRVTPQHRVMILATDGLWDVMSAAQAVEIAMQARQEGRNPAQALVEMTLAEQQSRNQSADNITAMTVFFKKTDEGHHHHHH
MSLTNTNAVELVKEAIDRGAEIILVKVDSKKYVKMSLELVKHFTEFAEGIFVTLNRPYFSLKKMLLKEGVDISKLYFIDCITLQLGGQVIDEERCFYLTSPDPVQLQVTIERAMDLVTVNNRFIYLDSLSTISLYKSFETLVKFLRHLTGKMRLRGFVGTIFTIEKEMDESYYSQISLMVDEVIEVDEGHHHHHH
MSLTNYKVVVLDMDDTLLNSDNVISEETANYLTAIQDEGYYVVLASGRPTEGMIPTARDLKLPEHHSYIISYNGSKTINMTNEEVEVSKSIGKQDFDEIVDYCRDRGFFVLTYHDGQIIYDSEHEYMNIEAELTGLPMKRVDDIKAYIQGDVPKVMGVDYVANITEARIDLNGVFNDNVDATTSKPFFLEFMAKDVSKGNAIKALCHKLGYSVDQVIAFGDSMNDKSMFEVAGLAIAMGNASDELKQYADEVTLDHNENGIPHALKKLLEGHHHHHH
MSLTQQITLIKDKILSDNYFTLHNITYDLTRKDGEVIRHKREVYDRGNGATILLYNTKKKTVVLIRQFRVATWVNGNESGQLIESCAGLLDNDEPEVCIRKEAIEETGYEVGEVRKLFELYMSPGGVTELIHFFIAEYSDNQRANAGGGVEDEDIEVLELPFSQALEMIKTGEIRDGKTVLLLNYLQTSHLMDEGGSHHHHHH
MSLTSEDFLIKSKGYLDIQTGEIIKADLLIRNGKIAEIGKINTKDATVISIPDLILIPGLMDSHVHIVGNDSKGEESIADSSHMGTVWGVVNAEKTLMAGFTTVRNVGAANYADVSVRDAIERGVINGPTMLVSGPALGITGGHCDHNLLPPEFNYSSEGVVDSPWEARKMVRKNRKYGADLIKFCATGGVMSRNTDVNAKQFTLEEMKAIVDEAHNHGMKVAAHAHGLIGIKAAIKAGVDSVEHASFIDDETIDMAIKNNTVLSMDIFVSDYILGEGAKAGIREESLNKERLVGKKQRENFMNAHRRGAIITFGTDAGIFDHGDNAKQFAYMVEWGMTPLEAIQASTIKTATLFGIENIGQIKEGFDADIVGVIENPLANIRTLEEVAFVMKEGKVYKREGHHHHHH
MSLTSQKTQLEPLGIVRIEGLHYYVHDLERSRRFYAQKLDFAEVARSTPALEREGRQRSAVFEAGGVRVVCSEPVGQGGRAWRWLRKHPDGVGTVVLEVEDAERAFRLLEERGGTPITDVQEHRDDGGTLRTFSITTPLGDTTFRFVERRGFRAVYPGIEPLAAPEGGRNAFGFGHVDHLTNNFQTMKPALLWMEHVMGMEEFWEVEFHTKDAAGARRAAIEAQKGSGLRSVVMRDPRSGVKFANNEPRRPAFKSSQINLFNEDLRGDGVQHAALTVQDILSSVRGMRARGVEFMPTPAAYYEALPERIRSTGIGRIDEDPRVLQELEILVDGAGDHSYLLQIFLRESAGLYHDPDAGPFFFEIIQRKGDQGFGAGNFRALFESIEREQVREGREGHHHHHH
MSLTVPTILVIDDDVQVCETIASLLARLRYACETAHSLEQGLAILETAPVDVVFLDVRLPDGNGIDALPRIRQAPSHPEVIILTGEGDPDDAELAIQGGVWDYLVKPTPIKQTTLTLARALQYRAEKLSKGGGGTVALDLDGVVGISPSMRQCFDLVANAATTEANVLVTGETGTGKELLARTIHRNSPRRNGPFVVVDCAALTESLVESTLFGHKRGAFTGAQQDRDGLVKLADGGTLFLDEVGEMPLAIQRAFLRILQERSFRPVGGTQEIRSDFRLISATNRDLDAMVERGEFRKDLLFRLNTVHVELPPLRTRPEDLKPLAIFHMNRLAEQYGVPAKGFATDFFQQLAQYDWPGNVREFFNVLERSFVISGLEGVLYAMHLPQDVRIKITRASLARSEGHHHHHH
MSLTVTIKDVAKKANVAPSTVSRVIADNPSISEKTKRRVRKVMSELGYHPNLNARSLANQTTKTIGLVMPSSANKAFQNPFFPEVIRGISSFAHVEGYALYMSTGETEEEIFNGVIKMVQGRQIGGIILLYSRENDRIIQYLNEKNFPFVLIGKPYDKKDKITYVDNDNYTAAREVAEYFISLGHKRIAFIGGGSDLLVTKDRLAGMSDALKLADIQLPSEYIFHLDFSRESGQQAVEELMGLKEPPTAIMATDDLIGLGVLSALTAKGISVPKDVSLVSFNNVLLSEIASPPLTTVDVNIYQLGYEAAKALVDKVEHSESSSKCIVIPHKLLKRQTCEGHHHHHH

Soluble on expression in E. coli, not soluble:
MSLTLIYGHRGAKGEAPENTLASFQRCLEHGVNRCELDLHLSRDGELMVIHDPTLKRTTGRRGKVAEHDAATLATYDARKGGPGWVRPTPIPRLEELFEKCPFEHWQLEVKSASRERAARTVTRIRELTERFGNRDKVTVTSGSRTVLKALNELTPELSRGLVAEYAWLDPLKVAQHYGCALLALNWTLCTPERLLKAQRQGLHVSVWTVNEPALMRRLADFGVDSLITDFPGLASATLGNEGHHHHHH
MSLTSEIIDVHMHCFVGRQQETALARDIALLRREGLRRMVVAGLVNTHPDPETTWNLIPDYVENHGDPHFNEADDLLALAESVDHALLPFVDTRYLRGDVATALDGYMGQGFKGVKGIYLPDNENDLGVGNVPDTLGISLEQYRRREWDLFAYAENHDLPLLYHMDARRYGDVMKDLLDDFPRVRVNFPHLGIGRKAFSAFLDRYPNIFTDIAGLLPYMRSNPASYRDFIMHYPDRICFGTDTFLYQAGSALDYISMVRELRLPEEIEAQVFNGNPTRFLGCVLYGAEGHHHHHH
MSLTSWNATIDPDNTIRFKEPDVLFDSGKSQVKERFKVVLDDFFPRYVKILSQEKYKGDIEEIRIEGHTSSEWLNAKTLEERYLGNAALSQARAFEVLKYCFALERIKGEQDWLIKVLRANGLSFAKPLDSEEHSRRVEFRTLTRSHQKMLKILDLSKEGHHHHHH
MSLTYDLLITDSHVITPKGMVEKNIVVENGKIELITNDSPDCDKKINGSGLVSIPGLIDPHVHYGVYSPIDQAAISESHAAAIGGVTTMIRMFRLKGSYKESLNKHLLASQNSHYIDYTLHASIFDDSQISEMQYCAENKIISFKIYMNLGGDVGHVYMEMNPGEEKLIAAEVNVTNELVEKIVKNAASLKCPVLVHAEDYQECSCGMKTEKEKNHDGLNAWSESRSPNFEAKSIQIICEYGRKYDCQIYFVHIGSKLALDKIKEEKKKGTKIFVETCPHYLTLSHETQTGYLAKVMPPIRTNNDVQSVWNALQNNEIDTIGTDHVANQLKLKLGGDDVWGALAGFPGIGTSLPILLSEGINKNRINLNQLANLTSTNSAKIFGLSGKGSLEKGYDADITMIDLKKEEKVSPELFGGFSDYLVYDGWNLKGWPVKTIVRGTVVAEDFEVIGKPGYGNFVPRKLSEGHHHHHH
